Numbered stars: 1 amine (or outer) side, 2 acyl side, 3 side chain; on linkers, the order of the positions; unused ones are H or OH. Bridge positions count the residues as written; N and C are the ends. Square brackets hold non-standard residues; d marks the D form. Ends that are not written are not given here. ThiAz = 3-(1,2,4-triazol-1-yl)-alanine, O=C([C@H](Cn1cncn1)N[*:1])[*:2]; Ala(2-furyl) = N[C@@H](Cc1ccco1)C(=O)O; 1Nal = N[C@@H](Cc1cccc2ccccc12)C(=O)O; TBMB = c1c(C[*:1])cc(C[*:3])cc1C[*:2]; hArg = N=C(N)NCCCC[C@H](N)C(=O)O; Tle = CC(C)(C)[C@H](N)C(=O)O; Pip = O=C(O)[C@@H]1CCCCN1; Aze = O=C(O)[C@@H]1CCN1; Aib = CC(C)(N)C(=O)O; azaGly = NNC(=O)O; βAla = NCCC(=O)O; Sar = CNCC(=O)O
Target: T1, Human EphA2 (Ecto) (Human, UniProt P29317 24-537)
T1 construct: extracellular domain
Experiment: FP competition; competitor Compound 18
Protocol: Peptides without a fluorescent tag were tested in competition with a peptide with a fluorescent tag and a known Kd (Table 2). Peptides were diluted to an appropriate concentration in assay buffer as described in the direct binding assay with a maximum of 5% DMSO, then serially diluted 1 in 2. Five μL of diluted peptide was added to the plate followed by 10 μL of human or mouse EphA2 (Table 1) at a fixed concentration which was dependent on the fluorescent peptide used (Table 2), then 10 μL fluorescent peptide added. Measurements were conducted as for the direct binding assay, however the gain was determined prior to the first measurement.

T1 sequence (P29317 24-537): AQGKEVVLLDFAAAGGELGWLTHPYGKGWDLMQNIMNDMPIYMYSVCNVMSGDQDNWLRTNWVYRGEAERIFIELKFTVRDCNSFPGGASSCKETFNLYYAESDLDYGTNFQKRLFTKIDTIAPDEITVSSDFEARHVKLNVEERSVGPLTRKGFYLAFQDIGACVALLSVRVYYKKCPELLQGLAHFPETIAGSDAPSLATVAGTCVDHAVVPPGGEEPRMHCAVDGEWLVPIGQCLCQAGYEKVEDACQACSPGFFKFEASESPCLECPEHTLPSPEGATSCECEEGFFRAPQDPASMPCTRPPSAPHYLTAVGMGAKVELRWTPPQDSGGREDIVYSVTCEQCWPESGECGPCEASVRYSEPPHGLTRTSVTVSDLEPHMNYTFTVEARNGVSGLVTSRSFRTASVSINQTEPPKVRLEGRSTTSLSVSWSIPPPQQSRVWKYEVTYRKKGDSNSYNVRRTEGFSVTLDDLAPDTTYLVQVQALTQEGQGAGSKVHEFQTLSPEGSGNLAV

Ki | Binder
4.95 nM | Ac-[Sar][Sar]AH[dD]V[Sar]CPWGPFWCPVNRPGC (linker 8-15-22 via TBMB) [Compound 212]
3.35 nM | [Sar][Sar]A[dA]DVPCPWGPFWCPVNRPGC (linker 8-15-22 via TBMB) [Compound 199]
0.83 nM | [Sar][Sar]AHDV[Aib]CPWGPFWCPVNRPGC (linker 8-15-22 via TBMB) [Compound 220]
26 nM | [Sar][Sar]AHD[dA]PCPWGPFWCPVNRPGC (linker 8-15-22 via TBMB) [Compound 215]
0.63 nM | Ac-[Sar][Sar]H[dD]VPCP[1Nal]G[Aib]F[1Nal]CPVNR[Aib]GC (linker 7-14-21 via TBMB) [Compound 261]
4.1 nM | Ac-[Sar][Sar]A[dD]DVPCPWGPFWCPVNRPGC (linker 8-15-22 via TBMB) [Compound 200]
4.8 nM | Ac-[Sar][Sar]A[dH]DVPCPWG[Aib]FWCP[Tle]NR[Aib]GC (linker 8-15-22 via TBMB) [Compound 233]
1.09 nM | Ac-[Sar][Sar][dH]DVPCPWGPFWCPVNRPGC (linker 7-14-21 via TBMB) [Compound 224]
20 nM | Ac-[Sar][Sar]A[dH]DVCPWGPFWCPVNRPGC (linker 7-14-21 via TBMB) [Compound 198]
0.28 nM | Ac-[Sar][Sar]A[dD]DVTCP[1Nal]GPF[1Nal]CPVNRPGC (linker 8-15-22 via TBMB) [Compound 283]
1.52 nM | Ac-[Sar][Sar]H[dD]VPCPWG[Aib]FWCP[Tle]NR[Aib]GC (linker 7-14-21 via TBMB) [Compound 270]
3.1 nM | [Sar][Sar]AHDV[Aze]CPWGPFWCPVNRPGC (linker 8-15-22 via TBMB) [Compound 221]
1.24 nM | Ac-[Sar][Sar]H[dD]VPCPWG[Aib]F[1Nal]CPVNR[Aib]GC (linker 7-14-21 via TBMB) [Compound 268]
0.7 nM | [Sar][Sar]A[ThiAz]DVPCPWGPFWCPVNRPGC (linker 8-15-22 via TBMB) [Compound 202]
2.77 nM | [Sar][Sar]AHD[Aib]PCPWGPFWCPVNRPGC (linker 8-15-22 via TBMB) [Compound 216]
1.2 nM | Ac-[Sar][Sar][dA]HDVPCPWGPFWCPVNRPGC (linker 8-15-22 via TBMB) [Compound 194]
0.84 nM | [βAla][Sar][Sar][Sar][Sar][Sar][Sar][Sar][Sar][Sar][Sar]H[dD]VPCPWGPFWCPVNRPGC (linker 16-23-30 via TBMB) [Compound 226]
1.25 nM | [Sar][Sar]AH[dD]VPCPWGPFWCPVNRPGC (linker 8-15-22 via TBMB) [Compound 209]
3.66 nM | [βAla][Sar][Sar][Sar][Sar][Sar][Sar][Sar][Sar][Sar][Sar]H[dD]VPCPWG[Aib]FWCP[Tle]N[hArg]P[dD]C (linker 16-23-30 via TBMB) [Compound 271]
3.1 nM | Ac-[Sar][Sar]AH[dD][Tle]PCPWGPFWCPVNRPGC (linker 8-15-22 via TBMB) [Compound 211]
8.3 nM | [Sar][Sar]AH[dA]VPCPWGPFWCPVNRPGC (linker 8-15-22 via TBMB) [Compound 206]
1.29 nM | [βAla][Sar][Sar][Sar][Sar][Sar][Sar][Sar][Sar][Sar][Sar]HDVPCPWGPFWCPVNRPGC (linker 16-23-30 via TBMB) [Compound 223]
1.8 nM | Ac-[Sar][Sar]A[dH]DVPCP[1Nal]GPFWCP[Tle]N[hArg]PGC (linker 8-15-22 via TBMB) [Compound 230]

Ki | Binder
3.4 nM | [Sar][Sar]AHDV[Pip]CPWGPFWCPVNRPGC (linker 8-15-22 via TBMB) [Compound 222]
15 nM | [Sar][Sar]AHDV[dA]CPWGPFWCPVNRPGC (linker 8-15-22 via TBMB) [Compound 219]
5.1 nM | Ac-[Sar][Sar]A[dH]DVPCPWGPFWCP[hArg]NRPGC (linker 8-15-22 via TBMB) [Compound 229]
0.95 nM | Ac-[Sar][Sar]A[dH]DVPCPWGPFWCPVNRPGC (linker 8-15-22 via TBMB) [Compound 196]
5.78 nM | Ac-[Sar][Sar]A[dD]DVTCPWGPFWCPVNRPGC (linker 8-15-22 via TBMB) [Compound 281]
1.01 nM | Ac-[Sar][Sar]AADVPCPWGPFWCPVNRPGC (linker 8-15-22 via TBMB) [Compound 195]
1.27 nM | [Sar][Sar]AHDVACPWGPFWCPVNRPGC (linker 8-15-22 via TBMB) [Compound 218]
1.8 nM | [Sar][Sar]AHAVPCPWGPFWCPVNRPGC (linker 8-15-22 via TBMB) [Compound 205]
1.3 nM | [Sar][Sar]AHEVPCPWGPFWCPVNRPGC (linker 8-15-22 via TBMB) [Compound 207]
22.5 nM | [Sar][Sar]AHDAPCPWGPFWCPVNRPGC (linker 8-15-22 via TBMB) [Compound 214]
1.1 nM | Ac-[Sar][Sar]AH[dD]VPCPWGPFWCPVNRPGC (linker 8-15-22 via TBMB) [Compound 210]
0.37 nM | [βAla][Sar][Sar][Sar][Sar][Sar][Sar][Sar][Sar][Sar][Sar]H[dD]VPCP[1Nal]G[Aib]F[1Nal]CP[Tle]NRPGC (linker 16-23-30 via TBMB) [Compound 252]
3.99 nM | [βAla][Sar][Sar][Sar][Sar][Sar][Sar][Sar][Sar][Sar][Sar]H[dD]VPCPWGP[hArg]WCP[Tle]N[hArg]P[dD]C (linker 16-23-30 via TBMB) [Compound 272]
1.6 nM | Ac-[Sar][Sar]H[dD]VPCP[1Nal]G[Aib]FWCPVNR[Aib]GC (linker 7-14-21 via TBMB) [Compound 266]
0.87 nM | Ac-[Sar][Sar]A[dD]DVTCP[1Nal]GPFWCPVNRPGC (linker 8-15-22 via TBMB) [Compound 282]
1.9 nM | Ac-[Sar][Sar]AH[dD]V[Aib]CPWGPFWCPVNRPGC (linker 8-15-22 via TBMB) [Compound 213]
2 nM | [Sar][Sar]AH[dE]VPCPWGPFWCPVNRPGC (linker 8-15-22 via TBMB) [Compound 208]
1.2 nM | [Sar][Sar]A[dH]DVPCPWGPFWCPVNRPGC (linker 8-15-22 via TBMB) [Compound 197]
0.49 nM | [Sar][Sar]A[Ala(2-furyl)]DVPCPWGPFWCPVNRPGC (linker 8-15-22 via TBMB) [Compound 203]
0.49 nM | [Sar][Sar]AHD[Tle]PCPWGPFWCPVNRPGC (linker 8-15-22 via TBMB) [Compound 217]
0.66 nM | Ac-[Sar][Sar]H[dD]VPCPW[azaGly]PFWCPVNRPGC (linker 7-14-21 via TBMB) [Compound 267]
2.15 nM | Ac-[Sar][Sar]A[dH]D[Tle]PCPWGPFWCPVNRPGC (linker 8-15-22 via TBMB) [Compound 204]
0.75 nM | Ac-[Sar][Sar]AH[dD]VPCP[1Nal]GPFWCP[Tle]N[hArg]PGC (linker 8-15-22 via TBMB) [Compound 227]

Source: patent publication US20200338203A1 (Bicycle, published 2020)
